Source: patent US20030194402A1

Experiments:
[1] = biological target: T1, human lymphotoxin (TNFβ) (human) (UniProt P01374); test: cell-based or functional assay
T1 sequence (looked up): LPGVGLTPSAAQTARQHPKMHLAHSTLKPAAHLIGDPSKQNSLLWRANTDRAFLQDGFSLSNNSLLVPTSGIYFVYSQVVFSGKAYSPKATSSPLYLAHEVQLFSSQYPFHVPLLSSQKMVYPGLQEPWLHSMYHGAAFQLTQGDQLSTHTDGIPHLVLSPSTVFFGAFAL

[2] = biological target: human tumor necrosis factor-α (TNFα) (human) (UniProt P01375); test: cell-based or functional assay
Sequence of human tumor necrosis factor-α (TNFα) (human) (P01375 77-233): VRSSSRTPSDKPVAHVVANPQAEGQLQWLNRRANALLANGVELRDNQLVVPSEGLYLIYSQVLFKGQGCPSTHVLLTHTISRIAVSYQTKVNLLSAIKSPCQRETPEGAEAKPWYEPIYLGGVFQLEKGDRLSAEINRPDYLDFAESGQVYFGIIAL

p55-sf2 (p55 TNF receptor/IgG1 heavy chain single fusion with truncated light chain JCK) (from UniProt P19438 3-159) (Fc fusion)
amount needed for the same degree of TNFβ inhibition, against p75P-sf2 [1]: 3 fold

B1: chimeric mouse/human IgG1 anti-platelet mAb (7E3) (antibody, INN chains, looked up, V domains shown)
VH: EVQLQQSGTVLARPGASVKMSCEASGYTFTNYWMHWVKQRPGQGLEWIGAIYPGNSDTSYIQKFKGKAKLTAVTSTTSVYMELSSLTNEDSAVYYCTLYDGYYVFAYWGQGTLVTVSA
VL: EIVLTQSPVTLSVTPGDSVSLSCRASRDISNNLHWFQQTSHESPRLLIKYASQSMSGIPSRFSGSGSGTDFTLSINSVETEDFGMYFCQQTNSWPYTFGGGTKLEIK
modifications: IgG1
IL-6 in supernatant of FS-4 fibroblasts after 18 h; TNF 0.3 ng/ml, antibody 4 µg/ml [2]: 1.6 ng/mL
IL-6 in supernatant of FS-4 fibroblasts after 18 h; TNF 1.5 ng/ml, antibody 4 µg/ml [2]: 1.96 ng/mL
IL-6 in supernatant of FS-4 fibroblasts after 18 h; TNF 7.5 ng/ml, antibody 4 µg/ml [2]: 2.16 ng/mL
